# Reference: publication doi:10.1101/2020.04.07.029900, “Pat1 increases the range of decay factors and RNA bound by the Lsm1-7 complex” (bioRxiv, 2020)
# Assays:
# Lsm1-7 complex = target: T1, Lsm1-7 complex (S. pombe, UniProt P87173 1-140; O94408 1-96; Q9Y7M4 1-93; O14352 1-121; O42978 1-80; Q9UUI1 1-75; …); assay: SEC; PatMC co-expressed with His6-Lsm1-7 in E. coli, co-purified on Ni-NTA and heparin, TEV, then preparative Superdex 200 16/60 in 400 mM NaCl, 20 mM HEPES 7.0, 1 mM DTT; SDS-PAGE of the complex; conditions: both partners purified
# T1 construct: Lsm1, S. pombe; from a polycistron of all seven Lsm proteins; Lsm2, S. pombe; Lsm3, S. pombe; Lsm4, S. pombe; Lsm5, S. pombe; Lsm6, S. pombe; Lsm7, S. pombe; Expected mass of the monomeric complex 81 kDa; In the droplet experiment 0.1 uM of it carried Alexa Fluor 555 maleimide; In the co-purification with PatMC the His6 tag on Lsm1 was present on Ni-NTA and cut by TEV before gel filtration; also …
# [1] = target: the molecule itself; assay: AUC; sedimentation velocity, 9.3 uM PatMC/Lsm1-7 without RNA, 250 mM NaCl, 20 mM HEPES pH 7.0, 1 mM DTT, 30,000 rpm, 10-12 hours
# [2] = target: the molecule itself; assay: AUC; sedimentation velocity, 9.3 uM PatMC/Lsm1-7 with stoichiometric A15 RNA, 250 mM NaCl, 20 mM HEPES pH 7.0, 1 mM DTT, 30,000 rpm, 10-12 hours
# T1 sequence (Q9Y7M4 whole entry, chain 3 of 2): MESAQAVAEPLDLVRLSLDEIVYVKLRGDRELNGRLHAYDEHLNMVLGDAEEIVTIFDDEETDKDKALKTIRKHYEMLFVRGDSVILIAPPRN
# T1 sequence (O42978 whole entry, chain 5 of 2): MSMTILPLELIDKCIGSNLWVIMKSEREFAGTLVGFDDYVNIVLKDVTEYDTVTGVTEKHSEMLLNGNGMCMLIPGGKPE
Binder,binding result (Lsm1-7 complex),stoichiometry N [1],stoichiometry N [2]
"PatMC (middle and C-terminal domains of Pat1, residues 296-754) (domain or fragment, S. pombe, UniProt O42958 296-754, looked up, Pat1, S. pombe, middle and C-terminal domains (PatMC), residues 296-754; codon optimized gene in site two of pET-Duet; No tag is told for PatMC in the co-expression construct; source: E. coli BL21(DE3)*, co-expressed with Lsm1-7 from pET-Duet, co-purified (Ni-NTA, heparin, Superdex 200)) LDEKRQKLERDHMLMAQCAGLMTRSDKSFIARIQISQLMSEDPESDDFYYRVYSIIRGRKPSEEEASHFIQTYLGPSNNRRRGRRSENPMQKLQQQLQRLVSSAKERPKATQLSLEGALGKIAVNTVRTPRQLLNVKRPTEPASSNSSLNNFSGFSTKKDVLHAIEKVYDLLLDFEQALRKASTLETTDQEQIDTWKTTLSEKLESIWKALYINESLEASSKTRPPFISIISHPKGMRLLPRLFPHLSKEQQISILKVVVYNFDSLDIVLRGTFDVNGELPLDVVSEMSSFTQFIIPPLLTIVNELDLETINNLFSQLLNRTNAVYLIQTKIGLSFLTLFISRAEILKQSGTVNQNEKEEWENTFNVMFNRVKGHFSTVFPPPNARAYADESYPWEFLAACATAASSEQHFTLVSETRDRVLDNIITSKRAPSEIAVVRISNVNLFLNAMGLDARQLSA",binds,–,–
"PatMC/Lsm1-7 complex (complex, Pat1, S. pombe, middle and C-terminal domains (PatMC), residues 296-754; codon optimized gene in site two of pET-Duet; Lsm1, S. pombe; from a polycistron of all seven Lsm proteins; Lsm2, S. pombe; Lsm3, S. pombe; Lsm4, S. pombe; Lsm5, S. pombe; Lsm6, S. pombe; Lsm7, S. pombe; Heterooctamer, expected mass of the monomeric complex 133 kDa; TEV was added before gel filtration to remove the His6 tag …) chain 1: LDEKRQKLERDHMLMAQCAGLMTRSDKSFIARIQISQLMSEDPESDDFYYRVYSIIRGRKPSEEEASHFIQTYLGPSNNRRRGRRSENPMQKLQQQLQRLVSSAKERPKATQLSLEGALGKIAVNTVRTPRQLLNVKRPTEPASSNSSLNNFSGFSTKKDVLHAIEKVYDLLLDFEQALRKASTLETTDQEQIDTWKTTLSEKLESIWKALYINESLEASSKTRPPFISIISHPKGMRLLPRLFPHLSKEQQISILKVVVYNFDSLDIVLRGTFDVNGELPLDVVSEMSSFTQFIIPPLLTIVNELDLETINNLFSQLLNRTNAVYLIQTKIGLSFLTLFISRAEILKQSGTVNQNEKEEWENTFNVMFNRVKGHFSTVFPPPNARAYADESYPWEFLAACATAASSEQHFTLVSETRDRVLDNIITSKRAPSEIAVVRISNVNLFLNAMGLDARQLSA chain 2: MNQATQIIPFTTSGSLVDYVDRKVIVVLRDGKKLIGILRSFDQFANLMLQYTIERIYVDDMYGDIDRGVYIVRGENVVLLGELDLDKEYDAVKQLRRMPAEELYPLAKLHEEEKKKNIREKGKYLHSVGFSVDGGHDDLY chain 3: MLFYSFFKTLIDTEVTVELKNDMSIRGILKSVDQFLNVKLENISVVDASKYPHMAAVKDLFIRGSVVRYVHMSSAYVDTILLADACRRDLANNKRQ chain 4: not shown chain 5: MLPLTLLNATQGRPILVELKNGETFNGHLENCDNYMNLTLREVIRTMPDGDKFFRLPECYIRGNNIKYLRIQDEVLSQVAKQQAQQRENRGSRFRGRGQRGRGNYGHTAPNRRGRGRGGHM chain 6: not shown chain 7: MDSSPNEFLNKVIGKKVLIRLSSGVDYKGILSCLDGYMNLALERTEEYVNGKKTNVYGDAFIRGNNVLYVSALDD chain 8: MSSLQKRPGPGNSSQPTERPRKESILDLSRYQDQRIQATFTGGRQITGILKGFDQLMNLVLDDVEEQLRNPEDGKLTGAIRKLGLVVVRGTTLVLIAPMDGSEEIPNPFVQAE",–,2,4
